The values that follow are results of earlier work, collected in article PMC2734106.

One data set deals with ubiquitin (Homo sapiens) (UniProt P0CG47).
Data set [1] deals with K48-linked tetraubiquitin (Homo sapiens) (UniProt P0CG47).

USP5, sequence (P45974 2-858): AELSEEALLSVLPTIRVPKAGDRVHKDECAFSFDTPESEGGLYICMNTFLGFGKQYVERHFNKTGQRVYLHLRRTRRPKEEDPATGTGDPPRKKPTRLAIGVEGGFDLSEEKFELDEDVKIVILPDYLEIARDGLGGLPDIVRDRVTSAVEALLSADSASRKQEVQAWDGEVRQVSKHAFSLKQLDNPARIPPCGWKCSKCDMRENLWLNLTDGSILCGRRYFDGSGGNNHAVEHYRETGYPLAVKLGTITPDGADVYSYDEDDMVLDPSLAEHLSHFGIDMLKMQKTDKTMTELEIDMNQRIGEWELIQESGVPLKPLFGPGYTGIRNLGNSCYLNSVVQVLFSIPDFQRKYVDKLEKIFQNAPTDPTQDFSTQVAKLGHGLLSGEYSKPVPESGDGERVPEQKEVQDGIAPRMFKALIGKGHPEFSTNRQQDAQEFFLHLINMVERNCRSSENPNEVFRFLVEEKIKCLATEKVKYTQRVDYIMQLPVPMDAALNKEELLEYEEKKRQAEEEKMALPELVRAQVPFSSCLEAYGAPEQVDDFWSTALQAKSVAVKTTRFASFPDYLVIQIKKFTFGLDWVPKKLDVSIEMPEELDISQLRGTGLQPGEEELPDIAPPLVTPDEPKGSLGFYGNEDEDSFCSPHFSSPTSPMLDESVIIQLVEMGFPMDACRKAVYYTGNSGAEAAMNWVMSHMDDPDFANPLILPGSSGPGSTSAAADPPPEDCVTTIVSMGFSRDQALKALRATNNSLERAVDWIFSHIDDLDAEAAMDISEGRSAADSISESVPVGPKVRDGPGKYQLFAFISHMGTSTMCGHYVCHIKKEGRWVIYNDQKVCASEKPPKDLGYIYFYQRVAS

USP5 (from UniProt P45974): the Kd (in general, the constant that tells how readily two partners part at equilibrium) was 50 nM with ubiquitin (Homo sapiens) and less than 1 nM in data set [1].
